The text below walks through data of paper PMC10245814 (bioRxiv, 2023).

The experiment has as its target T1, BabA^AD (residues 25 to 460 of mature BabA) (Helicobacter pylori 17875/Leb (CCUG …)).
T1 chain: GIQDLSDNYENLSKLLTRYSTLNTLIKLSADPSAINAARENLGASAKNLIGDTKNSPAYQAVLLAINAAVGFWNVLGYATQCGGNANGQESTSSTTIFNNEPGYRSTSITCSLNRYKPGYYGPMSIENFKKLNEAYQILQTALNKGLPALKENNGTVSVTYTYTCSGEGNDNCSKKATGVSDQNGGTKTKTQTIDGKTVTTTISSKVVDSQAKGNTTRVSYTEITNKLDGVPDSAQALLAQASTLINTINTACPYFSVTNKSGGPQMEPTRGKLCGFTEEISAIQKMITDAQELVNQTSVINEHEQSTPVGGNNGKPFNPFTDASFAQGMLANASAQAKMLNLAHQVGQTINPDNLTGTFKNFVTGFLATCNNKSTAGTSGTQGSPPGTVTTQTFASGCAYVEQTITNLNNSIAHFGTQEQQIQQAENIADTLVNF
Briefly: crystal structure.

B1: nanobody Nb-ER19 (VHH)
VHH: QVQLQESGGGLVQPGGSLRLSCAASGSIFSGNVMGWYRQAPGKLREWVAAITPQGVPNYADSVKGRFTISRDNAKNMLYLQMSSLKPEDTALYYCNRLPNYRSWGQGTQVTVSS
Take B1: the binding result is “binds”.
